Reference: patent publication US20050266562

What was measured:
[1] = molecular target: Sp1 (UniProt P08047); assay: cell_activity; details: luciferase induction in Drosophila cells
[2] = molecular target: Sp3 (UniProt Q02447); assay: cell_activity; details: luciferase induction in Drosophila cells
Sequence of Sp3 (Q02447 whole entry): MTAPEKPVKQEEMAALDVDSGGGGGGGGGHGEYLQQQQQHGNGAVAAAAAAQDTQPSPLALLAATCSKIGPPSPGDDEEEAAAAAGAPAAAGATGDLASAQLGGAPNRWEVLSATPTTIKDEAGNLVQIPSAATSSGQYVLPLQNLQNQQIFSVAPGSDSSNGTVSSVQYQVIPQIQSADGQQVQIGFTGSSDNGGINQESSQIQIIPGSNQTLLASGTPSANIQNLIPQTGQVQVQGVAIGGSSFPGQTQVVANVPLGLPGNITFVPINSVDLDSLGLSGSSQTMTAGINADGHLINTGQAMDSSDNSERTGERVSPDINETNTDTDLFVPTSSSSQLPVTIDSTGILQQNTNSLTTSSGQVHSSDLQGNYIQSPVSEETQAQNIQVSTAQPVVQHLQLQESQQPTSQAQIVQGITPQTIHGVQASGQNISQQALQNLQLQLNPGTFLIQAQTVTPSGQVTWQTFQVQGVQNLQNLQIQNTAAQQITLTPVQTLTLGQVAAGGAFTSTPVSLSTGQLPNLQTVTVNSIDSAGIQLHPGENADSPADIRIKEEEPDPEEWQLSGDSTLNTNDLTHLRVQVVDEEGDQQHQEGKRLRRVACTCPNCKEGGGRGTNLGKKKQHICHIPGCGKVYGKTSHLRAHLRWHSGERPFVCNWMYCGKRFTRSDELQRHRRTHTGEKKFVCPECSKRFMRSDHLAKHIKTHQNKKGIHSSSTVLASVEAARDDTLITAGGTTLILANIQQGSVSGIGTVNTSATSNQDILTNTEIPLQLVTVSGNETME

Sequence of Sp1 (P08047 2-785): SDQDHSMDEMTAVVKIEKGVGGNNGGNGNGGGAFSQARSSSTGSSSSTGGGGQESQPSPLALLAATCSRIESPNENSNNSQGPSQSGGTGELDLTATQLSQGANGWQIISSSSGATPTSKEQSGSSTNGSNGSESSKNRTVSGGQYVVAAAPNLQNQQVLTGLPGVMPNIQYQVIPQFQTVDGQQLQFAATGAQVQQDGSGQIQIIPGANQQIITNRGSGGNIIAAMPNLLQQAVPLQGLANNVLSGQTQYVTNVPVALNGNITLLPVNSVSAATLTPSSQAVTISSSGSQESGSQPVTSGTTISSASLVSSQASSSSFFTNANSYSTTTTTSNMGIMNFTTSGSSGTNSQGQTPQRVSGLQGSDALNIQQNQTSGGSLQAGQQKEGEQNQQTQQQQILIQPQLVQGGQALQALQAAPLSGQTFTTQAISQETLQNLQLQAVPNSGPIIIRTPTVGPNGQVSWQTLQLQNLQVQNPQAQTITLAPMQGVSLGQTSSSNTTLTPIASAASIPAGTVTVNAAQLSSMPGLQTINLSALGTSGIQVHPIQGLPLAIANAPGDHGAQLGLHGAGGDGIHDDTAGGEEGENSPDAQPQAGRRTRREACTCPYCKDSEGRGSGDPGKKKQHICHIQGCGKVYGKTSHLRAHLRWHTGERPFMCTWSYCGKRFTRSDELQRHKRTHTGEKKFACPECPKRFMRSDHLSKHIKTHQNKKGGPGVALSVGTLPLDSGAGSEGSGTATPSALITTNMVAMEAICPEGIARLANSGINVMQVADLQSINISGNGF

Row | Substance | activity [1] | activity [2]
1 | CD11c promoter -196/+30 (luc reporter) | 19.5 fold | 18.9 fold
2 | CTGTATTGTTGTACAGAACTGCAGTTTGTTCTTTGTTATTTATTGTAAAGACAGGGTCTGGCTATGTTGCCTAGGCTGGTCTCGAACTGTTGGCCTCAAGCAATCCACCTGCCAAGCTCTGGGACCACAGGCATGAGCCATGGCATCTGATCKGTAGTTTGATCTTATTTCTTGCTGAGTAGTAGCCCATGGCATGACTTTATTATTTTGGGTGTCCATTCTCCTCTGGAGGGGCTCTGCTTTTTGAAACCACACCCTGGCCTAGCTCCCCTTCTCCCTGCCTCTCTGCAGGCTCACATCCACATGCCAAGACCTCTGCAGCCATTCTGCTTCCTGTCCTTCCACTCCTGTGGGACCTCAGAGAGCTACGGGGCTCCCTGGGTACCAACTGGCTCCTGAGGCCTGGGGGAGGGTGGTCTTCTGGGAGAAGGAAGCCAGGTCCCTGCAGGTTGTGGAGGGGGACAGAATGAGGGTTTTTCCCCAGGATGTTGTTGGCCCCTGCCCCCACTTCTGTTCCATAATTAACCACGCCCCTCCTACCCACTGTGCCCCTCTTCCTGCTGTGTGGAGGCCCTGAATCATTATTTTAACTACCCCCTGGGAGGGTGAGCACCTTCTGTGCTCTGTCCCCAACCTTCCACTTCCCCTCAACGCGCTGCTCAGGG (double strand) [CD11d promoter -591/+74 (luc reporter)] | 4.1 fold | –
